Publication PMC4332690

Tests used:
[1] = molecular target: PIDD death domain (PIDD-DD), human, residues 778-883 (human) (UniProt Q9HB75); experiment: native MS; nanoESI-MS, positive ion mode; 15 μM purified complex in 50 mM ammonium acetate pH 7.8
[2] = molecular target: PIDD death domain (PIDD-DD), human, residues 778-883 (human) (UniProt Q9HB75); experiment: SEC-MALS; as a1 but total protein loaded 1.5 mg/mL (lowest concentration; some subunit dissociation)

UniProt Q9HB75, sequence (Q9HB75 778-883): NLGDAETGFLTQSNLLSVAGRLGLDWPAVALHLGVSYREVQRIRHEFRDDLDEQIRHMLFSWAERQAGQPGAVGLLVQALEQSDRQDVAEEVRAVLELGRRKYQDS

Substance	population of the 5:5 complex [1] [%]	population of the 6:5 complex [1] [%]	population of the 7:5 complex [1] [%]	stoichiometry N (RAIDD-DD per PIDD-DD (5:5)) [1]	stoichiometry N (RAIDD-DD per PIDD-DD (6:5)) [1]	stoichiometry N (RAIDD-DD per PIDD-DD (7:5)) [1]	population of the 5:4 complex [1] [%]	stoichiometry N (RAIDD-DD per PIDD-DD (5:4)) [1]	stoichiometry N (RAIDD-DD per PIDD-DD (R4:P4)) [2]
RAIDD death domain (RAIDD-DD), human, residues 99-199, wild type (from UniProt P78560 99-199) (domain or fragment)	28	43	29	1	1.2	1.4	–	–	–
RAIDD-DD (E188K) (from UniProt P78560 99-199) (domain or fragment)	87	–	–	1	–	–	13	1.25	1
